B1: human IL-33 (112-270) complete Cys→Ser mutant (C208S, C227S, C232S and C259S) (ligand)
chain: SITGISPITEYLASLSTYNDQSITFALEDESYEIYVEDLKKDEKKDKVLLSYYESQHPSNESGDGVDGKMLMVTLSPTKDFWLHANNKEHSVELHKSEKPLPDQAFFVLHNMHSNSVSFESKTDPGVFIGVKDNHLALIKVDSSENLSTENILFKLSET

Target: human ST2.Fc (extracellular domain of ST2 fused to Fc) (human) (UniProt Q01638)
UniProt Q01638, sequence (Q01638 19-328): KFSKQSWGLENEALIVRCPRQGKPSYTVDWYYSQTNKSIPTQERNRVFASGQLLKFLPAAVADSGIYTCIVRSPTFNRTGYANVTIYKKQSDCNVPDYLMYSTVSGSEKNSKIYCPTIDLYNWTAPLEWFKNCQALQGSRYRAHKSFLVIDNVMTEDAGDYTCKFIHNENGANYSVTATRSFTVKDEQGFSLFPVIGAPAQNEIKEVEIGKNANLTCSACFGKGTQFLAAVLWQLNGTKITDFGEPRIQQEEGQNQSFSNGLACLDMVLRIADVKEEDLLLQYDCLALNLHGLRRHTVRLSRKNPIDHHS

| Molecule | EC50 in a short duration signalling assay (NFκB p65/RelA translocation in HUVEC) |
| --- | --- |
| human IL-33 (amino acids 112-270), reduced form (from UniProt O95760 112-270) (ligand) | 0.15 nM |
| B1 | 0.15 nM |
